From patent US20240158489A1 (published 2024) come the findings set out here.

Some targets named below: Cyno ANG-2 (monkey); Rat VEGF164; Rabbit VEGF 165.
Holding throughout (assay): -; FIG. 2B
In another experiment the target is T1, rat ANG2 (rat, UniProt O35462 19-496).
T1 chain: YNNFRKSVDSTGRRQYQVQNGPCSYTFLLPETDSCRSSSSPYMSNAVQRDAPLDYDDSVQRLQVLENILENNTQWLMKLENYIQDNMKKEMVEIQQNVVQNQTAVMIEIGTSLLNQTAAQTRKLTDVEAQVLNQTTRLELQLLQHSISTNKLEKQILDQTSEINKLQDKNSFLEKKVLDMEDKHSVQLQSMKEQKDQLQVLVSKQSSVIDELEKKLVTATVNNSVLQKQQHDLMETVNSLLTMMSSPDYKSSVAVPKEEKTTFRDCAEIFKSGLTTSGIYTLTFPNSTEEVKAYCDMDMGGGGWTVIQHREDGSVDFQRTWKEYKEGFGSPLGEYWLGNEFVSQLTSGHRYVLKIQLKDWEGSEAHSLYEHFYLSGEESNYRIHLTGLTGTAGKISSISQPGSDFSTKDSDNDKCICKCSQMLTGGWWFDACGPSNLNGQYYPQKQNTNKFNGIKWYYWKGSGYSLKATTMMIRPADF

Another experiment concerns the target T2, rabbit ANG2 (rabbit, UniProt G1T9B3 19-496).
T2 chain: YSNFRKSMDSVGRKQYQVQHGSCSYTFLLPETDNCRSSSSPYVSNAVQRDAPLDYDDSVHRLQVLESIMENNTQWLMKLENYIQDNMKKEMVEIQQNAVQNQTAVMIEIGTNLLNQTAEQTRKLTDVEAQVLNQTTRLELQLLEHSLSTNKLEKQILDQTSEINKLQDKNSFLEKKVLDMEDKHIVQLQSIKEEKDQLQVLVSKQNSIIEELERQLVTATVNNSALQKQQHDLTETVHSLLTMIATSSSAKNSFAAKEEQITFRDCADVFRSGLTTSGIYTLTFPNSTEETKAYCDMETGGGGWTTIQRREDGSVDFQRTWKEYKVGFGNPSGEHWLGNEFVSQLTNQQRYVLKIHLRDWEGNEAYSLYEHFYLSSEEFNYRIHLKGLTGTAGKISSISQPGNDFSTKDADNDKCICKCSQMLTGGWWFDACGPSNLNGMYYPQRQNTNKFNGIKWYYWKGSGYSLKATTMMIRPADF

B1: anti-ANG-2×VEGF bispecific antibody ABP201 (bispecific antibody)
heavy: EVQLLESGGGLVQPGGSLRLSCAASGFTFSWYEMYWVRQAPGKGLEWVSSISPSGGWTMYADSVKGRFTISRDNSKNTLYLQMNSLRAEDTAVYYCATPLYSSDYLSAGDIWGQGTMVTVSSASTKGPSVFPLAPSSKSTSGGTAALGCLVKDYFPEPVTVSWNSGALTSGVHTFPAVLQSSGLYSLSSVVTVPSSSLGTQTYICNVNHKPSNTKVDKRVEPKSCDKTHTCPPCPAPEAAGGPSVFLFPPKPKDTLMISRTPEVTCVVVDVSHEDPEVKFNWYVDGVEVHNAKTKPREEQYNSTYRVVSVLTVLHQDWLNGKEYKCKVSNKALPAPIEKTISKAKGQPREPQVYTLPPSREEMTKNQVSLTCLVKGFYPSDIAVEWESNGQPENNYKTTPPVLDSDGSFFLYSKLTVDKSRWQQGNVFSCSVMHEALHNAYTQKSLSLSPGKGGGGSGGGGSEIVLTQSPGTLSLSPGERATLSCRASQSITGSYLAWYQQKPGQAPRLLITGASSWATGIPDRFSGSGSGTDFTLTISRLEPEDFAVYYCQQYSSSPITFGCGTRLEIKGGGGSGGGGSGGGGSGGGGSQVQLVESGGGVVQPGRSLRLSCAASGFTFTNYGMHWVRQAPGKCLEWVAVISHEGNNKYYVDSVKGRFTISRDNSKNTLYLQMNSLRAEDTAVYYCAREGIDFWSGLNWFDPWGQGTLVTVS
light: EIVLTQSPATLSLSPGERATLSCRASQSVHSSYLAWYQQKPGQAPRLLIYGASSRATGIPDRFSGSGSGTDFTLTISRLEPEDFAVYYCQQSYRTPSFGQGTRLEIKRTVAAPSVFIFPPSDEQLKSGTASVVCLLNNFYPREAKVQWKVDNALQSGNSQESVTEQDSKDSTYSLSSTLTLSKADYEKHKVYACEVTHQGLSSPVTKSFNRGEC
As to B1, the results for the Kd with rat ANG2 and in the experiment with rabbit ANG2 were 40.5 nM and 30.4 nM, respectively.

B2: ABP 201 (bispecific antibody)
heavy: EVQLLESGGGLVQPGGSLRLSCAASGFTFSWYEMYWVRQAPGKGLEWVSSISPSGGWTMYADSVKGRFTISRDNSKNTLYLQMNSLRAEDTAVYYCATPLYSSDYLSAGDIWGQGTMVTVSSASTKGPSVFPLAPSSKSTSGGTAALGCLVKDYFPEPVTVSWNSGALTSGVHTFPAVLQSSGLYSLSSVVTVPSSSLGTQTYICNVNHKPSNTKVDKRVEPKSCDKTHTCPPCPAPEAAGGPSVFLFPPKPKDTLMISRTPEVTCVVVDVSHEDPEVKFNWYVDGVEVHNAKTKPREEQYNSTYRVVSVLTVLHQDWLNGKEYKCKVSNKALPAPIEKTISKAKGQPREPQVYTLPPSREEMTKNQVSLTCLVKGFYPSDIAVEWESNGQPENNYKTTPPVLDSDGSFFLYSKLTVDKSRWQQGNVFSCSVMHEALHNAYTQKSLSLSPGKGGGGSGGGGSEIVLTQSPGTLSLSPGERATLSCRASQSITGSYLAWYQQKPGQAPRLLITGASSWATGIPDRFSGSGSGTDFTLTISRLEPEDFAVYYCQQYSSSPITFGCGTRLEIKGGGGSGGGGSGGGGSGGGGSQVQLVESGGGVVQPGRSLRLSCAASGFTFTNYGMHWVRQAPGKCLEWVAVISHEGNNKYYVDSVKGRFTISRDNSKNTLYLQMNSLRAEDTAVYYCAREGIDFWSGLNWFDPWGQGTLVTVS
light: EIVLTQSPATLSLSPGERATLSCRASQSVHSSYLAWYQQKPGQAPRLLIYGASSRATGIPDRFSGSGSGTDFTLTISRLEPEDFAVYYCQQSYRTPSFGQGTRLEIKRTVAAPSVFIFPPSDEQLKSGTASVVCLLNNFYPREAKVQWKVDNALQSGNSQESVTEQDSKDSTYSLSSTLTLSKADYEKHKVYACEVTHQGLSSPVTKSFNRGEC
In the case of B2, the Kd worked out at 29.8 nM with Cyno ANG-2, 0.62 nM in the experiment with Rat VEGF164 and 2.06 nM with Rabbit VEGF 165.

As usually defined, the Kd is the free concentration of one partner at which half of the binding sites on the other are occupied at equilibrium, for simple one-to-one binding. High values mean a looser complex, low ones a tighter complex.
